# Measured values as given in US20240287172A1 (SCIRHOM, published 2024).
# Numbering of substitutions follows the chain as printed.
# B1: antibody 48 (antibody, V domains shown)
# VH: QVQLQQSGTELVRPGTSVKVSCKASGYAFTNYLIEWVKQRPGQGLEWIGVINPGSGFTKYNEKFKGKATLTADKSSSTVYMHLSSLTSEDSAVYFCARGLYRAMDYWGQGTSVTVSS
# VL: DIQMTQSPASQSASLGESVTITCLASQTIATWLAWYQQKPGKSPQLLIYGATTLADGVPSRFSGGGSGTKFSFKISSLQAEDFVSYYCQQLYSTPYTFGGGTKLEIK
# notes: mouse IgG, kappa light chain; also called clone #48; purified antibody 48
# B2: antibody 50 (antibody, V domains shown)
# VH: B1 VH with T9A, T16A, T30S, V79A, H82Q
# VL: B1 VL with A30G, G50A, T52A, T53S, S85N, L91I
# notes: mouse IgG, kappa light chain; also called clone #50; purified antibody 50
# Key:
# hiR2-FL-D538L-T7 = target: T1, hiR2-FL-D538L-T7 (human, UniProt Q6PJF5 1-856); assay: FACS, MEF-DKO cells, 3 µg/ml
# T1 sequence: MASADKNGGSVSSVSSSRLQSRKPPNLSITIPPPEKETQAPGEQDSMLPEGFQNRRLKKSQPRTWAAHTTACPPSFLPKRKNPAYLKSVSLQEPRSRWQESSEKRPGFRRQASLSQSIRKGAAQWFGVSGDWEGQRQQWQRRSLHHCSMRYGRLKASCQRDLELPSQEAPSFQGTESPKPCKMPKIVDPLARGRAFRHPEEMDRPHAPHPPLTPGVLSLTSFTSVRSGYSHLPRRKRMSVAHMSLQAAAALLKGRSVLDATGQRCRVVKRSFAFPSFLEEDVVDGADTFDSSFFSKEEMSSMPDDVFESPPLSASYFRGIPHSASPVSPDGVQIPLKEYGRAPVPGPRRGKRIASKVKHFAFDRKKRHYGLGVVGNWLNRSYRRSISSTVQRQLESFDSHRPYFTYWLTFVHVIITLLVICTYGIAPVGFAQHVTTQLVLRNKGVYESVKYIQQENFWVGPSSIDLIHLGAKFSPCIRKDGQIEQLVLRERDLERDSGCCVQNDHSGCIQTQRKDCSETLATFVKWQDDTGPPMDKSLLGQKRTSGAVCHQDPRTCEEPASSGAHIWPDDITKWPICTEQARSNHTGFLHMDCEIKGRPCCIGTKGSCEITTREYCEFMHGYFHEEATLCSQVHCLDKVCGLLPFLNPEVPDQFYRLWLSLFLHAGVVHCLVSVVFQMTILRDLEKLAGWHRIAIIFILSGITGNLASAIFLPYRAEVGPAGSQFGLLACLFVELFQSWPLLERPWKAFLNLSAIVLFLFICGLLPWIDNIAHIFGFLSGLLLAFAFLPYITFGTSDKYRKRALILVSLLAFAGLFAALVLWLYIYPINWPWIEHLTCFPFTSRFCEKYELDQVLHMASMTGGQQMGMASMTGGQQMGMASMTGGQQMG
# hiR2-FL-D515E-T7 = target: T2, hiR2-FL-D515E-T7 (human, UniProt Q6PJF5 1-856); assay: FACS, MEF-DKO cells, 3 µg/ml
# T2 sequence: T1 sequence with D515E, L538D
# miR2-FL-WT-T7 = target: T3, miR2-FL-WT-T7 (mouse, UniProt Q80WQ6 1-827); assay: FACS on MEF-DKO-miR2-FL-WT-T7 cells
# T3 construct: on MEF-DKO cells
# T3 sequence: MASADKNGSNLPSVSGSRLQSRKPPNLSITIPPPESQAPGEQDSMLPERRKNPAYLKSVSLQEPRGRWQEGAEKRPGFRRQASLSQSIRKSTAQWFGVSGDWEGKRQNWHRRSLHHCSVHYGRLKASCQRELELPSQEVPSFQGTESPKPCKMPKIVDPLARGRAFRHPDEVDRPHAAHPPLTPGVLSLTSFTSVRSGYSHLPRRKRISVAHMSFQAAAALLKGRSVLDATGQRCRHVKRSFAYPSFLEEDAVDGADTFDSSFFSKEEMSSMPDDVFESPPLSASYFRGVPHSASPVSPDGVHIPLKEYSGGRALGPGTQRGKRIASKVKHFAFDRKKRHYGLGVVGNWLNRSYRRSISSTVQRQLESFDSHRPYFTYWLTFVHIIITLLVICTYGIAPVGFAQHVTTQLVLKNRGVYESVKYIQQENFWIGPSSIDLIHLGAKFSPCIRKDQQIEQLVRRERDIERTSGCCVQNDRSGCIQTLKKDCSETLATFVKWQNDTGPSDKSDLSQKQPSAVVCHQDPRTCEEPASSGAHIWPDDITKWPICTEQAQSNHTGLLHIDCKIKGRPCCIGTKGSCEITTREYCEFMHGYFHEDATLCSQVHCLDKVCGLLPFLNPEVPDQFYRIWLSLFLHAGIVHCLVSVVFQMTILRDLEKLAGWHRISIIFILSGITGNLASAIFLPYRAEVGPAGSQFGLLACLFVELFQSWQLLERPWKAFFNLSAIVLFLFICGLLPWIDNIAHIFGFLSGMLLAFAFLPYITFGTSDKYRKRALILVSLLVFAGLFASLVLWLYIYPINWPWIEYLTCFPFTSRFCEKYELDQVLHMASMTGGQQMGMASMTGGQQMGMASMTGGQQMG
Binder,loss of binding vs wild type (hiR2-FL-D538L-T7) [%],loss of binding vs wild type (hiR2-FL-D515E-T7) [%],binding result (miR2-FL-WT-T7)
B1,≥ 30,≥ 30,
B2,,,no binding (tested: 3 µg/ml)
